Experiments:
[1] = test system: ATF2 transcriptional activity; assay: GAL4 luciferase reporter assay in CHO cells: GAL4-ATF2; format: cell-based, Chinese hamster; settings: GAL4-ATF2 reporter, CHO cells, FIG. 4C
Protocol: In these experiments, CHO cells were cotransfected with constructs encoding the transcription factors and JIP-1 using previously described methods. Dérijard et al., supra; Sluss et al., supra; Gupta et al., supra. A luciferase reporter plasmid was used to monitor the expression of the transcription factors. Transfection efficiency was determined using a β-galactosidase expression vector. Constructs used in these experiments included GAL4 fusions with the c-myc, Sp1 and VP16 activation domains (described in Whitmarsh et al., Science, 269:403 (1995); Davis, Science, 269:403 (1995); Gille et al., Curr. Biol., 5:1191 (1995)). Other constructs used were GAL4-c-Jun, in which GAL4 is fused to c-Jun; GAL4-c-Jun (S63A/S73A), in which GAL4 is fused to a mutant c-Jun in which the serines at positions 63 and 73 have been changed to alanines; GAL4-ATF2, in which GAL4 is fused to wild type ATF2 (ATF2(Thr-69, 71)); GAL4-ATF2 (T69A/T71A) (ATF2(Ala-69/71)), in which GAL4 has been fused to a mutant ATF2 in which the […] at positions 69 and 71 have been changed to alanines; GAL4-Elk-1, in which GAL4 has been fused to Elk-1; and GAL4-Elk-1 (S383A), in which GAL4 has been fused to a mutant Elk-1 in which the serine at position 383 has been changed to an alanine. Gupta et al., EMBO J, 15:2760-2770 (1996); Raingeaud et al., Mol. Cell. Biol., 16:1247-1255 (1996); Whitmarsh et al. Science, 269:403-407 (1995).
Insertional overlapping PCR, described in detail in Ho, supra, was used to construct expression vectors for the JNK binding domain (JBD; amino acid residues 127-281) of JIP-1 and for a mutant JIP-1 lacking the SH3 (amino acid residues 491-540) domain.
(§1) Transfected cells were activated by treatment with 10% (v/v) fetal calf serum, and luciferase and β-galactosidase activities were measured in cell lysates at 48 hours post-transfection. The data are presented as the ratio of luciferase activity (light units) to β-galactosidase activity (OD units) measured in the cell extracts (mean±SEM (n=3)), and are normalized to the luciferase activity detected in the absence of JBD (FIGS. 4A and 4B) or ATF2 (FIG. 4C).

[2] = test system: Sp1 activation domain; assay: GAL4 luciferase reporter assay in CHO cells: Sp1 activation domain; format: cell-based, Chinese hamster; settings: 48 hours post-transfection, FIG. 4A
Protocol: (§2) In these experiments, CHO cells were cotransfected with constructs encoding the transcription factors and JIP-1 using previously described methods. Dérijard et al., supra; Sluss et al., supra; Gupta et al., supra. A luciferase reporter plasmid was used to monitor the expression of the transcription factors. Transfection efficiency was determined using a β-galactosidase expression vector. Constructs used in these experiments included GAL4 fusions with the c-myc, Sp1 and VP16 activation domains (described in Whitmarsh et al., Science, 269:403 (1995); Davis, Science, 269:403 (1995); Gille et al., Curr. Biol., 5:1191 (1995)). […]
as §1

[3] = test system: E1a activation domain; assay: GAL4 luciferase reporter assay in CHO cells: E1a activation domain; format: cell-based, Chinese hamster; settings: 48 hours post-transfection, FIG. 4A
[4] = test system: VP16 activation domain; assay: GAL4 luciferase reporter assay in CHO cells: VP16 activation domain; format: cell-based, Chinese hamster; settings: 48 hours post-transfection, FIG. 4A
Protocol: as §2, §1

[5] = test system: c-Myc activation domain; assay: GAL4 luciferase reporter assay in CHO cells: c-Myc activation domain; format: cell-based, Chinese hamster; settings: 48 hours post-transfection, FIG. 4A
Protocol: as §2, §1

[6] = test system: differentiated PC12 cells; assay: NGF withdrawal-induced apoptosis of differentiated PC12 cells; format: cell-based; settings: pCDNA3-Flag-JIP-1 (residues 127-281) transfection; 17 hours following NGF withdrawal; FIG. 5
From the text: The effect of JIP-1 on this biological response was investigated to determine whether JIP-1 inhibits the biological effects of the JNK signaling pathway. NGF withdrawal-induced apoptosis of differentiated PC12 cells was examined following transfection with the expression vectors pCDNA3 (control) and pCDNA3-Flag-JIP-1 (containing residues 127-281 of JIP-1) using methods described previously. Xia et al., Science, 270:1326 (1995). The percentage of apoptotic cells in the total transfected cell population was blind-scored and quantitated. This assay scores adherent cells with an apoptotic morphology at 17 hours following NGF withdrawal. Cells that have completed apoptosis are nonadherent and are not scored. Thus, while the cumulative extent of apoptosis is large (100%), lower numbers of apoptotic cells are detected at a single time point.

[7] = test system: primary mouse marrow cells (pre-B cells); assay: Bone marrow transformation assay: pre-B cell transformation by BCR-ABL retrovirus; format: cell-based; settings: bicistronic retrovirus, JBD in sense orientation (not anti-sense); day 10 post infection; FIG. 6
Protocol: To examine the effect of JIP-1 on BCR-ABL-mediated cellular transformation, bone marrow transformation assays were performed using recombinant retroviruses packaged with 293T cells as described in Sawyers et al., J. Exp. Med., 181:307 (1995). Bicistronic retroviruses expressing BCR-ABL, alone, or in combination with the Flag-tagged JBD (residues 127-281) of JIP-1, were prepared by subcloning p185BCR-ABL into the ClaI site of pSRαTK, downstream of the internal TK promoter, to create pSRαMSVTKp185. The JBD was subcloned into the upstream EcoRI site in the sense and antisense orientations.
The recombinant retroviruses were then used to infect primary mouse marrow cells, and the transformation of pre-B cells was monitored in culture. […] The data shown are derived from three independent experiments plated in triplicate. As expected, BCR-ABL caused pre-B cell transformation.

[8] = test system: JNK; assay: JNK activation by v-ABL or BCR-ABL in transfected 293 cells (immune complex kinase assay); format: cell-based; settings: co-expression in 293 cells; GST-Jun substrate
From the text: The BCR-ABL oncogene, which is associated with chronic myelogenous leukemia (CML), causes JNK activation in the absence of increased ERK activity. Raitano et al., Proc. Natl. Acad. Sci. USA, 92:11746 (1995). Oncogenic transformation by BCR-ABL may be mediated in part by the JNK signaling pathway. Since JIP-1 can inhibit JNK activity, the effect of JIP-1 expression on oncogenic transformation was examined. Plasmid vectors expressing v-ABL or BCR-ABL and Flag-tagged JBD (residues 127-281) of JIP-1 were used to transfect 293 cells. JNK activity was then measured in an immune complex kinase assay of lysates of the transfected 293 cells, using a polyclonal JNK antibody and GST-Jun as the substrate. […] JIP-1 can therefore inhibit BCR-ABL-mediated activation of JNK.

B1: JBD: JNK binding domain of JIP-1, residues 127-281, expressed (Flag-tagged) in cells (protein)
chain: PKAESNQDPAPRSQGQGPGTGSGDTYRPKRPTTLNLFPQVPRSQDTLNNNSLGKKHSWQDRVSRSSSPLKTGEQTPPHEHICLSDELPPQGSPVPTQDRGTSTDSPCRRSAATQMAPPSGPPATAPGGRGHSHRDRIHYQADVRLEATEEIYLTP
modifications: Flag tag
- JNK-regulated gene expression [1]: inhibition
- reporter gene expression mediated by Sp1 activation domain [2]: did not inhibit
- reporter gene expression mediated by E1a activation domain [3]: did not inhibit
- reporter gene expression mediated by VP16 activation domain [4]: did not inhibit
- reporter gene expression mediated by c-Myc activation domain [5]: did not inhibit
- apoptosis following NGF-withdrawal [6]: markedly reduced
- pre-B cell transformation by BCR-ABL [7]: marked inhibition
- constitutive JNK activation caused by v-ABL and BCR-ABL [8]: blocked
